# Results taken from publication PMC8494132, “Human Three-Finger Protein Lypd6 Is a Negative Modulator of the Cholinergic System in the Brain” (Frontiers in Cell and Developmental Biology, 2021).
# B1: isolated water-soluble LU-domain of Lypd6b (ws-Lypd6b) (domain or fragment)
# chain: FKCFTCENAGDNYNCNRWAEDKWCPQNTQYCLTVHHFTSHGRSTSITKKCASRSECHFVGCHHSRDSEHTECRSCCEGMICNVELPTNHTNAVFA
# Tests used:
# [1] = biological target: LRP6 (Homo sapiens) (UniProt O75581); settings: cited from earlier work
# [2] = biological target: T1, α7-nAChR (native, rat hippocampal CA1 interneurons) (Rattus norvegicus, UniProt Q05941); assay: whole-cell patch clamp, hippocampal slices; settings: agonist; 1 mM choline pulses, 22°C, -60 mV, pH 7.4
# T1 construct: gene Chrna7; native receptor in CA1 stratum radiatum interneurons of hippocampal slices
# T1 sequence (Q05941 23-502): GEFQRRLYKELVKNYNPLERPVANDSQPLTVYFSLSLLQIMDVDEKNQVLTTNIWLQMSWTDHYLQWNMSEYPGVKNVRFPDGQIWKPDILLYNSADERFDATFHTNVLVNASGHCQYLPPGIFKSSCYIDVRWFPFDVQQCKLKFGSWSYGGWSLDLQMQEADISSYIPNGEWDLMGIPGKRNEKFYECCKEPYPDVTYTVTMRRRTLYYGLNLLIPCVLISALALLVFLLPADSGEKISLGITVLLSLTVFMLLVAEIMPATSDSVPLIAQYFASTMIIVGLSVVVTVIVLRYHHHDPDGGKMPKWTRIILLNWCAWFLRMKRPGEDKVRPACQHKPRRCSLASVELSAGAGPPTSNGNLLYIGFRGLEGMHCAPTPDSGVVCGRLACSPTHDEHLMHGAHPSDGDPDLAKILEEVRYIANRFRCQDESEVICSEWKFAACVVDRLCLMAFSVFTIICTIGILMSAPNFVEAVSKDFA
# [3] = biological target: human homomeric α7 nicotinic acetylcholine receptor expressed in X. laevis oocytes (human) (UniProt P36544)
# human homomeric α7 nicotinic acetylcholine receptor expressed in X. laevis oocytes (human), sequence (P36544 23-502): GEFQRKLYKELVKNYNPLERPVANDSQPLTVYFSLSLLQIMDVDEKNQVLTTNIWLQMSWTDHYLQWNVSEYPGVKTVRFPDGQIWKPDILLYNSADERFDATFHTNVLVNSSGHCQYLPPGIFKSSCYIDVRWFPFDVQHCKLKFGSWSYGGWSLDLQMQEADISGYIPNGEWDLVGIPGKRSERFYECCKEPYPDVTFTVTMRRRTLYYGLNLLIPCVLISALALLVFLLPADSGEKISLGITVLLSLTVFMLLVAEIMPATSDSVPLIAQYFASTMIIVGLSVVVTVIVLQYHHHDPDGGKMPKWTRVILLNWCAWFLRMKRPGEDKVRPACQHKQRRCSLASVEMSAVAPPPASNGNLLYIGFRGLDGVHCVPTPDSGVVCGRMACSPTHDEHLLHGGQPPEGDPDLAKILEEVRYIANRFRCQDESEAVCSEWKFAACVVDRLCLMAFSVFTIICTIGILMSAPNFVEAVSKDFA
# [4] = biological target: human α3β4 nicotinic acetylcholine receptor expressed in X. laevis oocytes (human) (UniProt P32297)
# human α3β4 nicotinic acetylcholine receptor expressed in X. laevis oocytes (human), sequence (P32297 32-505, chain 1 of 2): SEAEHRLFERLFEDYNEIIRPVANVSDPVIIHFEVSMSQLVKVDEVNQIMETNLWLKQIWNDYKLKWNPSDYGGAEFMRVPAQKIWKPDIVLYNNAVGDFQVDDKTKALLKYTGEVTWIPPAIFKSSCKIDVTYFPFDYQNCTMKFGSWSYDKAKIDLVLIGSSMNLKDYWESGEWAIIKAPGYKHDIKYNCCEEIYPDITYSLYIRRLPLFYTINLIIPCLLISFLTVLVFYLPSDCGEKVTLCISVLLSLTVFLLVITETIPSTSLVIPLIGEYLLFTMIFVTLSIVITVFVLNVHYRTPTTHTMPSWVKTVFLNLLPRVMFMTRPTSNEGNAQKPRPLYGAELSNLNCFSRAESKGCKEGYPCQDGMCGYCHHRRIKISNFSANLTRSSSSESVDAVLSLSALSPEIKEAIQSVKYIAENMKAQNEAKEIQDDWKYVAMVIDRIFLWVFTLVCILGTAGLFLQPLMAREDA
# human α3β4 nicotinic acetylcholine receptor expressed in X. laevis oocytes (human), sequence (P30926 22-498, chain 2 of 2, further chain): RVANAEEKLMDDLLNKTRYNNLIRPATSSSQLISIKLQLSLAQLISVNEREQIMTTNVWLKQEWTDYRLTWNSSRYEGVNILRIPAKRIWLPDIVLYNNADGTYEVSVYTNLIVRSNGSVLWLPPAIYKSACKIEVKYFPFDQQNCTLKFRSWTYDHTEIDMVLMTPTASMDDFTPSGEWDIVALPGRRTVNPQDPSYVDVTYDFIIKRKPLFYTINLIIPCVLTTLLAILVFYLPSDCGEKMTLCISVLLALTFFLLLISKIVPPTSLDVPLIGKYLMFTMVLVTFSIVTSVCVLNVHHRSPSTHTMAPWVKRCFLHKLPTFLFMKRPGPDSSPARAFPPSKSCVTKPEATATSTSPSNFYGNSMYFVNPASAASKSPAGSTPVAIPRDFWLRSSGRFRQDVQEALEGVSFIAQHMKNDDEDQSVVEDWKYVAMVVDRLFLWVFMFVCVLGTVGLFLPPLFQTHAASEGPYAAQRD
# [5] = biological target: native α7 nicotinic acetylcholine receptor in interneurons of CA1 stratum radiatum, rat hippocampal slices (rat (endogenous in hippocampal slices)) (UniProt Q05941)
# native α7 nicotinic acetylcholine receptor in interneurons of CA1 stratum radiatum, rat hippocampal slices (rat (endogenous in hippocampal slices)), sequence (Q05941 23-502): as the sequence (Q05941 23-502) above
# [6] = biological target: human homomeric α7 nicotinic acetylcholine receptor expressed in X. laevis oocytes (human) (UniProt P36544); remark: listed apart in the source
# LRP6 (Homo sapiens), sequence (O75581 20-1370): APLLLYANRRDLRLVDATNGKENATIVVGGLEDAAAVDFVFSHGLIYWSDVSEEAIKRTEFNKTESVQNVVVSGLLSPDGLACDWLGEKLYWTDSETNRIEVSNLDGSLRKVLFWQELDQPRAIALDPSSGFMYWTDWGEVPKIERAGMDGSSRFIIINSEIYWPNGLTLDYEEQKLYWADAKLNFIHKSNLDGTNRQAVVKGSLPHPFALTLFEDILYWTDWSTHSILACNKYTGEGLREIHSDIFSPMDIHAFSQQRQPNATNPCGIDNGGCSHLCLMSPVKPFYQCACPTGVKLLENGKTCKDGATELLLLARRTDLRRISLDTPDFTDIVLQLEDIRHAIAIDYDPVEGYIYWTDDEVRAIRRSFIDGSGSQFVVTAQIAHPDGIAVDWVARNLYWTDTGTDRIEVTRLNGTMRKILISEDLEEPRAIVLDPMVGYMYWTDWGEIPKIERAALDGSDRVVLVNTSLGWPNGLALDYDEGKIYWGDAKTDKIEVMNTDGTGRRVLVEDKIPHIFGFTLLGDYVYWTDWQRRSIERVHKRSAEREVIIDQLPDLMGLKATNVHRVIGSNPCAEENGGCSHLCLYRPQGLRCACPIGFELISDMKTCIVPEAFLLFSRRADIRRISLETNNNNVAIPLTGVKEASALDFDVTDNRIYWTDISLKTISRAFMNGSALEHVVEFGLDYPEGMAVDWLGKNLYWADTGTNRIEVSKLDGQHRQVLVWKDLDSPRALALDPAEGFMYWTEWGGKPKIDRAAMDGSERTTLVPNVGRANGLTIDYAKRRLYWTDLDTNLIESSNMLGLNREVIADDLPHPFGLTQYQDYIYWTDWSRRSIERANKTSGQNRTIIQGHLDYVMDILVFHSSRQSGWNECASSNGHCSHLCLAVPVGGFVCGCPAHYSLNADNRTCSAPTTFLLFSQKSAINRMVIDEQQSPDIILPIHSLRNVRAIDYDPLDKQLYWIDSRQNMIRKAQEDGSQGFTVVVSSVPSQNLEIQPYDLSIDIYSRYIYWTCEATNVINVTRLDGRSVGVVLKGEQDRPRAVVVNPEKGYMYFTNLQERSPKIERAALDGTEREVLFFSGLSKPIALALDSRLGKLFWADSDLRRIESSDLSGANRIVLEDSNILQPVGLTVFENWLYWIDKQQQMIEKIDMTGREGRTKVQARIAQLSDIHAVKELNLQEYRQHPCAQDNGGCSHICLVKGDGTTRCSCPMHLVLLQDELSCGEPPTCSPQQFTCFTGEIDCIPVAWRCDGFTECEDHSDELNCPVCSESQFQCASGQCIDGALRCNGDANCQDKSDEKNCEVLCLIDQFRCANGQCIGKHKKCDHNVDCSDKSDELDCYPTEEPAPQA
molecule,measurement,setting,value
Lypd6 (from UniProt Q86Y78),Kd,[1],1000 nM
C[N+](C)(C)CCO [Choline],"whole-cell patch clamp, hippocampal slices",[2],Application of choline induced the robust currents in the interneurons of CA1 str. radiatum
recombinant water-soluble variant of human Lypd6 containing the isolated three-finger LU-domain (ws-Lypd6) (domain or fragment),"IC50 of inhibition of ACh-evoked currents (100 μM ACh, 15 s pre-incubation), two-electrode voltage clamp, X. laevis oocytes",[3],10.9 µM
same,"IC50 of inhibition of ACh-evoked currents (100 μM ACh, 5 min pre-incubation), two-electrode voltage clamp, X. laevis oocytes",[4],34.9 µM
same,"amplitude of choline-evoked currents (1 mM choline) with 1 μM ws-Lypd6, whole-cell patch clamp in rat hippocampal slices with 8 μM DhβE; reversed by washout (% of the control value)",[5],72
B1,"reduction of the ACh-evoked current amplitude by 30 μM ws-Lypd6b (100 μM ACh), two-electrode voltage clamp, X. laevis oocytes",[6],20%
